Measurements from US10400224B2, “Enantioselective modified esterase enzyme and method for the production thereof” (CORPORACIÓN CORPOGEN, priority 2014, dated 2019).

Legend:
[1] = Optimum temperature and pH of the modified enzyme (p-nitrophenyl ester assay); format: biochemical
Experimental: The activity of the modified enzyme was determined spectrophotometrically at 405 nm in a range of temperatures between 45 and 75° C., using p-nitro phenyl of other chains C6 to C10 (Sigma-Aldrich) as substrate. One unit of esterase activity was defined as the capacity of the enzyme to release 1 μmol min^−1 of p-nitrophenol under the essay conditions. The molar absorbance coefficient was of 16.900 M^−1 cm^−1. The mixture consisted of 448 μl of the Tris-HCl 50 mM buffer at 9.0 pH that contained 50 μl of p-nitrophenyl diluted in isopropanol and 2 μl of the solution stock of the protein. All the assays were made by triplicate and the average was calculated.
The optimum temperature of the modified enzyme was evaluated between 30 and 90° C. in buffer Tris HCl 50 mM (pH 9.0) exposing the enzyme to 30 minutes in each evaluated temperature (Suzuki et al., 2004, Park et al., 2006). […]
It was evaluated the activity of the enzyme by means of the p-nitrophenyl ester with some modifications, since for evaluating different pH values were used different buffer solutions, depending of the pH to evaluate: buffer acetate 50 mM (pH 5.0-6.0) buffer succinate (pH 4.0-5.5), MES (pH5.5-7.0). […] The protein was incubated for 15 minutes at a temperature higher than 45° C. and lower than 75° C. and then the quantification was made.

[2] = Kinetic resolution of racemic phenyl ester of ibuprofen (chiral HPLC); format: biochemical
Experimental: An evaluation was performed analytical scale to deter mine the kinetic resolution of phenyl ester substrates of ibuprofen and naproxen (Chow et al., 2012). The evaluation of the kinetic resolution for phenyl ester substrates of ibuprofen was developed in the following manner:
i) A solution with 17.32 Ml of buffer phosphate (100 mM, pH 8.0) was mixed with 2 ml. of DMSO and 0.66 mil of the stock solution of the substrate (10 mM in DMSO). To this solution it was added 100 μl of the enzyme to evaluate. The reaction was made with continuous agitation at a temperature from 45° C. and 75° C. for 80 minutes.
ii) The reaction was stopped by the addition of a concentrated solution of HCl (pH 1.0). Immediately thereafter, it was extracted the ibuprofen with methyl tertiary butyl ether (MTBE) twice with 20 ml of the solution.
iii) The ibuprofen was derivatized as a methyl ester after having added a solution of diazomethane 0.5 M in ethanol. The solvent was removed by means of reduction of pressure.
iv) The enantiomeric excess of the phenyl ester Ibuprofen and of the methyl ester ibuprofen was determined by means of chiral liquid high efficiency chromatography (HPLC—High performance liquid chromatography) (Dionex) using a Chiralpak IA column, under the following conditions: • A mobile phase n-heptane:isopropanol with a ratio of 99.8:0.2 • A flow of 0.5 mL.min^1 • Reading at 210 nm.
v) The retention time for the enantiomer (S) methyl ester ibuprofen was of 10:23 minutes, while that for the enantiomer (R) methyl ester ibuprofen was of 11:17 minutes. The retention time for the enantiomers (S) and (R) phenyl ester ibuprofen were of 16.32 and 18.07 respectively.

[3] = Kinetic resolution of phenyl ester of naproxen (1H-NMR, chiral HPLC); format: biochemical
Experimental: (§1) The enantioselectivity was evaluated by means of the kinetic resolution of the substrates phenyl ester naproxen and pNP ester naproxen. The procedure was the following (Chow et al., 2012):
(§2) i) 69.29 mL of a buffer phosphate solution (100 mM, pH 8.0) was mixed with 8 mL of DMSO-d6 and 2.64 mL of the stock solution of the substrate (10 mM in DMSO-d6). To this solution, it was added 200 μl of the enzyme to evaluate. The reaction was performed under continuous agitation at a temperature between 45° C. and 75° C. for 40 minutes.
(§3) ii) The reaction was stopped by adding a concentrated solution of HCl (pH 1.0). Immediately, the naproxen was extracted with MTBE twice with 20 ml of the solution.
(§4) iii) The extracted mixture of naproxen was dried under reduced pressure conditions. The transformation of this substrate was determined by means of MRI spectrographs (1H-NMR, Hydrogen-1 nuclear magnetic resonance) in which were compared the signals generated by the methyl groups from the naproxen and its corresponding esters.
(§5) iv) After measuring the samples containing the naproxen and the phenyl ester of naproxen, these samples were mixed with MTBE, 20 mL and extracted again with 20 mL, from an aqueous solution of NaHCO3.
(§6) v) The aqueous phase was acidified with HCl and it was extracted with MTBE, 20 ml. The extracted naproxen was derivatized to methyl ester through the addition of a solution of diazomethane 0.5 M in ethanol. The solvent was removed by a reduced pressure.
(§7) vi) The enantiomeric excess of the methyl ester ibuprofen was determined by means of chiral liquid high efficiency chromatography (HPLC—High performance liquid chromatography) (Dionex) using a Chiralcel ODH, under the following conditions • A mobile phase n-heptane: isopropanol with a ratio of 99:1 • A flow of 0.5 mL.min^1 • Reading at 225 nm.
(§8) vii) The retention time for the (S) and (R) enantiomers of methyl ester naproxen were of 22.84 and 19.39 minutes, respectively.

[4] = Storage of the purified modified protein in Tris-HCl buffer; format: physicochemical; conditions: Tris-HCL buffer at 9.0 pH, 4° C.
Experimental: Thereafter, the product of the elution was concentrated in Amicon columns of 30 kDa. This concentration process was strictly necessary in order to be able to rule out the elution solution in which it was the protein and permit to leave it in a Tris-HCL buffer at a 9.0 pH, which permits stability to the modified protein. […] The purity of the protein was evaluated in a SDS-PAGE gel at 12% (p/v).

[5] = Kinetic resolution of pNP ester of naproxen (1H-NMR, chiral HPLC); format: biochemical
Experimental: as §1, §2, §3, §4, §5, §6, §7, §8
viii) The samples evaluated by NMR, underwent an additional test for determining the ee, by means of chiral HPLC with a CD detector (Jasco) using a Hyperclone ODS C18 column, under the following conditions: • A mobile phase of acetonitrile:water in a ratio of 80:20. • Flow of 0.5 mL.min^−1 • Reading of 220 nm
ix) The retention time for the p-NP ester of naproxen was of 3.83 minutes. The CD signal was measured at 280 nm.

[6] = calculated by method of Kroutil et al, 1997

B1: 499EST: esterase enzyme of SEQ No. 2 from strain USBA-GBX-499 with a C-terminal tail of 5-10 histidine residues (protein, listed as Acidicaldus sp.)
chain: MPLDRHAEAVLEMIRQSGRPPYETLTPAEARGLYRQAREVLAPEPPPVAEVRDLSLPHPAGPALPTRLYRPQQGGAPLPLLVYFHGGGWVIGDLETHDVVCREIANRAGIGVLSIDYRLAPEHKFPAAVEDAFAATRWAAKEAPSLGFDPARLAVGGDSAGGNLAAVVSLLAREQGGPSIAFQLLIYPATDLGMTHPSHQRWAEGYLLTRPTMEWFRAHYLTDPTREIADWRVSPLRAPDLRGLPPAFVLTAEYDPLVDEGEDYAARLAAAGVPVATHRVPGMIHGFLTMGKAIPAANEALGLIAERLRAALA
modifications: C-terminal histidine tail; amino acid sequence of 499EST
pH of optimum activity [1]: 9.0 | temperature of optimum activity [1]: 55 °C | conversion c [2, 6]: 56% | enantioselectivity E [2, 6]: 4 | ee of the substrate (phenyl ester of ibuprofen) ([2]; chiral HPLC): 50% | ee of the product ([2]; chiral HPLC, product derivatized as methyl ester): 40% | conversion ([3]; 1H-RMN): 52% | ee of naproxen product ([3]; HPLC): 65% | enantioselectivity E ([3]; phenyl ester of naproxen): 10 | storage time [4]: several months | conversion ([5]; 1H-RMN): 49% | ee of naproxen product ([5]; HPLC): 31% | enantioselectivity lower for the pNP ester than for the phenyl ester ([5]; naproxen esters): 5 times | enantioselectivity E ([5]; pNP ester of naproxen): 2
